Stoichiometry N data for one substance are collected here from publication PMC7022315.

For the assay, the target named is Stx2k B-subunit (of the Stx2kE167Q toxoid) (Escherichia coli). As to the kind of experiment: crystal structure.

The substance “Stx2k B-subunit (of the Stx2kE167Q toxoid) (natural protein)” yielded a stoichiometry N of 5.
